This passage reports Kd results from paper PMC8465892, “CDR1 Composition Can Affect Nanobody Recombinant Expression Yields” (Biomolecules, 2021).

Positions count from the first letter of the chain named. Names may count otherwise.

To fix the notation:
B1: A10 wt (VHH)
VHH: EVQLQASGGGFVQPGGSLRLSCAASGATSNISNMGWFRQAPGKEREFVSAISRAESRPLYYADSVKGRFTISRDNSKNTVYLQMNSLRAEDTATYYCAYMPLVRHKAYWGQGTQVTVSS
notes: anti-Her2 nanobody isolated by panning a synthetic library; also called anti-Her2 ectodomain nanobody A10; source: pET-derived vectors, produced as previously reported [17]
B2: A10 mutKG (VHH)
VHH: EVQLQASGGGFVQPGGSLRLSCAASGAGTSNISNMGWFRQAPGKEREFVSAISRAESRPLYYADSVKGRFTISRDNSKNTVYLQMNSLRAEDTATYYCAYMPLVRHKAYWGQGTQVTVSS
notes: A10 wt with a glycine inserted after A29 in CDR1 (G29a); also called G29a; source: gene synthetized by Twist Bioscience, pET-derived vectors, produced as previously reported [17]
B3: A10 mutKG.1 (VHH)
VHH: B2 VHH with A6E, F11L, S50A, R89K, A90P
notes: A10 mutKG (G29a) with five framework mutations printed as Q8E, F13L, S51A, R90K, A91P; source: gene synthetized by Doulix, pET-derived vectors, produced as previously reported [17]
B4: A10 mutG0 (VHH)
VHH: B2 VHH with G28T, T29S, S30G
notes: A10 wt with a glycine inserted after S31 in CDR1 (G31a); also called G31a; source: gene synthetized by Twist Bioscience, pET-derived vectors, produced as previously reported [17]

The assay addresses T1, Her2 ectodomain-Fc (UniProt P04626 23-652).
T1 construct: Her2 ectodomain
The assay can be described thus: SPR; Biacore T200, 25 °C; Her2 ectodomain-Fc immobilized by amine-coupling on a CM5 chip at 1180 RU; nanobodies injected at 30 µL/min in 20 mM Hepes, 150 mM NaCl, 3 mM EDTA, 0.005% Tween 20, pH 7.4; eight concentrations between 250 and 3.5 nM; 1:1 Langmuir model. As to conditions: both partners purified. (Surface plasmon resonance follows binding to a sensor surface in real time, without labels.)
The Kd is the free concentration of one partner at which half of the binding sites on the other are occupied at equilibrium, for simple one-to-one binding. As for B1, binding was characterised by a dissociation constant (Kd) of 4.9 nM.
Under B2 stands 34.7 nM; under B3, 9.9 nM; under B4, 23.5 nM.
